Laboratory results taken from US10677782B2, “Methods of determining interferon having direct inhibitory effects on tumors and uses thereof” (SUPERLAB FAR EAST LIMITED, priority 2013, dated 2020).

Assays:
[1] = test system: human hepatoma SMMC-7721; assay: Human hepatoma SMMC-7721 xenografts in nude mice (Example 1); format: in vivo; conditions: for TV (mm^3, mean ± SD) (D0): day 0, start of treatment
Protocol: The test article was used without dilution. It was stored at 4° C. until thawed for injection.
The animals used were 4-6 weeks old male BALB/cA nu/nu mice, weighing about 23±2 g, obtained from the Shanghai Institute of Materia Medica (Shanghai, P.R. China). The study protocol was reviewed by the Committee on the Use and Care of Animals of Shanghai Institute of Materia Medica for compliance with regulations, and Committee approval was obtained prior to study initiation. Wherever possible, procedures used in this study were designed to avoid or minimize discomfort, distress, and pain to the animals. Animals that experience severe or chronic pain or distress that could not be relieved were painlessly euthanized, in accordance to regulations. Animals were housed 6 to a cage. They were ear-marked with ear hole punch identification. The room temperature was maintained at 25° C.±1° C. Lighting was set at 12 hr on and 12 hr off. Food was provided ad libitum. City tap water, filtered with a 5 micrometer (μm) filter, was provided to the animals ad libitum via water bottles. Neither the Study Director nor Huiyang Life Science and Technology Corp. was aware of any contaminant in the food or water that would interfere with or influence the intent and purpose of this study.
The test article (rSIFN-co) and the vehicle control were each administered intratumorally (i.t.). The test article was administered in a volume of 0.05 ml-0.15 ml per mouse per treatment, depending on the group to which the animal was assigned. […] Normal saline was injected in a volume of 0.15 ml per mouse, which was used as vehicle control.
(§1) Animals were assigned to treatment groups randomly. Initially, all animals were placed in one large animal cage. For assignment to the study, they were later separately housed, with 6 animals per cage per treatment group. Groups 1 and 2 are Control groups in which the animals were each administered the vehicle every other day after the first treatment. […] The animals in Groups 4, 5 and 6 were each given rSIFN-co every other day after the first treatment at 0.15 mg/mouse (Group 4) or 0.10 mg/mouse (Group 5) or 0.05 mg/mouse (Group 6), respectively. Tumor growth was monitored by measuring the length and width of each tumor twice a week during the course of the study. Each animal was also weighed twice a week during the course of the study.
Before commencement of this study, the xenografts were passaged twice in nude mice. Under sterile conditions, well-grown tumors were cut into 1.5 mm^3 fragments and one such fragment was injected by trocar needle into the right flank of each study animal. […] Individual tumor size (length and width) was measured twice per week with microcalipers. Tumor volume (V) was calculated using the formula: V=(length×width^2)/2. Individual relative tumor volume (RTV) was calculated using the formula: RTV=Vt/V0, where Vt is the tumor volume on the day of measurement and V0 is the tumor volume on the day of first treatment. Therapeutic effect of the test article or control article was expressed in terms of TIC (%), using the formula: TIC (%) (mean RTV of the treated group/mean RTV of the control group)×100%; and in terms of % Inhibition, using the formula: % Inhibition=100%−T/C %.

[2] = test system: phosphorylation of STAT1 (Tyr701), STAT2 (Tyr690), STAT3 (Tyr705) in Hela cells; assay: STAT phosphorylation by Western Blot; format: cell-based, human; conditions: 10 μg/ml; 0, 5, 15, 30, 60, 120 and 240 minutes
Excerpt: (§2) After treatment, the cells were collected, cellular proteins were extracted and loaded onto SDS-PAGE […] for Western Blot analysis to observe the phosphorylation of STAT1 (Tyr701), STAT2 (Tyr690), and STAT3(Tyr705). GAPDH was used as a loading control.
(§3) The primary antibodies used were: STAT1 (1:1000, Cat #: 9175S), Tyr701 phosphorylated-STAT1 (1:1000, Cat #: 9167S), STAT2 (1:500, Cat #4594), Tyr690 phosphorylated-STAT2 (1:1000, Cat #: 441S), STAT3 (1:1000, Cat #: 9132), Tyr705 phosphorylated-STAT3 (1:1000, Cat #: 9145S). Anti-mouse (Cat #: sc-2005) or rabbit (Cat #: sc-2004) or goat (Cat #: sc-2020) HRP-conjugated secondary antibodies (Santa Cruz Technology, Santa Cruz, Calif.) were used at concentrations of 1:2000. Blots were visualized by use of Luminescence/Fluorescence Imaging LAS4000 System (GE Healthcare Life Sciences, USA) with super signal west pico chemiluminescnet substrate kit (Thermo Scientific, USA).

[3] = test system: phosphorylation of STAT1 (Tyr701), STAT2 (Tyr690), STAT3 (Tyr705) in A549 cells; assay: STAT phosphorylation by Western Blot; format: cell-based, human; conditions: 10 μg/ml; 0, 5, 15, 30, 60, 120 and 240 minutes
Excerpt: as §2, §3

[4] = Tolerability and body weight of tumor-bearing mice, Example 2; format: in vivo, BALB/cA nu/nu mice
Protocol: as §1
The study was conducted as in Example 1 except as specifically indicated otherwise. Human cervical cancer xenografts were first established and prepared in a similar manner as in Example 1, by inoculating 5×10^6 Hela cells subcutaneously in nude mice and passaging the well-grown xenografts twice in nude mice. Then 1.5 mm^3 fragments were prepared for s.c. implantation into the animals. The body weight of the animals averaged 19±2 g at dose initiation In contrast to Example 1, the animals used were all female.

[5] = 0.05 mg/mouse i.t. every other day, day 21

B1: rSIFN-co: Recombinant super-compound interferon; amino acid sequence SEQ ID NO: 1 (same as interferon alfacon-1), encoded by SEQ ID NO: 2, novel tertiary structure (protein)
chain: MCDLPQTHSLGNRRALILLAQMRRISPFSCLKDRHDFGFPQEEFDGNQFQKAQAISVLHEMIQQTFNLFSTKDSSAAWDESLLEKFYTELYQQLNDLEACVIQEVGVEETPLMNVDSILAVKKYFQRITLYLTEKKYSPCAWEVVRAEIMRSFSLSTNLQERLRRKE
modifications: Amino acid sequence of recombinant interferon
With B1 the “TV (mm^3, mean ± SD) (D0)” value ([1]; 0.05 mg/mouse i.t. every other day) was 124 ± 26 mm^3, the “% Inhibition” value [1, 5] was 48.10% and the “TV (mm^3, mean ± SD) (D21)” value [1, 5] was 592 ± 139 mm^3. For the same molecule, the “TV (mm^3, mean ± SD) (D0)” value ([1]; 0.10 mg/mouse i.t. every other day) was 124 ± 15 mm^3, the “TV (mm^3, mean ± SD) (D21)” value ([1]; 0.10 mg/mouse i.t. every other day, day 21) was 573 ± 287 mm^3 and the “TV (mm^3, mean ± SD) (D0)” value ([1]; 0.15 mg/mouse i.t. every other day) was 123 ± 20 mm^3. The “TV (mm^3, mean ± SD) (D21)” value ([1]; 0.15 mg/mouse i.t. every other day, day 21) was 505 ± 226 mm^3, the “phosphorylation patterns for STAT1, STAT2 and STAT3” value [2] was “behaved similarly in their phosphorylation patterns for STAT1, STAT2 and STAT3” and the “phosphorylation patterns for STAT1, STAT2 and STAT3” value [3] was “behaved similarly in their phosphorylation patterns for STAT1, STAT2 and STAT3”. The “tolerability: signs of toxicity” value ([4]; 0.05-0.15 mg/mouse i.t. every other day, 28 days) was “no signs of toxicity” and the “change in average body weight” value ([4]; 28-day treatment period) was “Very little change”.
